# Data published in patent publication US20110287512.
# How the values were obtained:
# [1] = system: ZFN7264 (host) (artificial); experiment: cell_activity; details: yeast, paired with 7263 ZFN
# [2] = system: ZFN7264 linker 1e center linker F2-F3 TGSQKP replaced by TVPRPTPPKP (artificial); experiment: cell_activity; details: normalized yeast MEL-1 score
# [3] = system: ZFN7264 linker TGGGGSQKP (artificial); experiment: cell_activity; details: yeast, paired with 7263 ZFN
# [4] = system: ZFN7264 linker TGLPKPKP (artificial); experiment: cell_activity; details: yeast, paired with 7263 ZFN
# [5] = system: ZFN7264 linker TSRPRPKP (artificial); experiment: cell_activity; details: yeast, paired with 7263 ZFN
# [6] = system: ZFP8196 (host, center linker TGEKP) (artificial)
# [7] = system: ZFP8196 linker 1c (artificial)
# [8] = system: ZFP8196 linker 1d (artificial)
# [9] = system: ZFP8196 linker 1f (artificial)
# [10] = system: ZFP8196 linker LRQKDERP (artificial)
# [11] = system: ZFP8196 linker TCPRPPTRKP (artificial)
# [12] = system: ZFP8196 linker TEPRAKPPKP (artificial)
# [13] = system: ZFP8196 linker TGEGGKP (artificial)
# [14] = system: ZFP8196 linker TGGGGSQKP (artificial)
# [15] = system: ZFP8196 linker TGYSIPRPKP (artificial)
# [16] = system: ZFP8196 linker TPDAPKPKP (artificial)
# [17] = system: ZFP8196 linker TPDRPISTCKP (artificial)
# [18] = system: ZFP8196 linker TPGLHRPKP (artificial)
# [19] = system: ZFP8196 linker TPSHTPRPKP (artificial)
# [20] = system: ZFP8196 linker TSPRLPAPKP (artificial)
# [21] = system: ZFP8196 linker TSSPRSNAKP (artificial)
# [22] = system: ZFP8196 linker TVSPAPCRSKP (artificial)
# [23] = system: ZFP7263 (host, center linker TGSQKP) (artificial)
# [24] = system: ZFP7263 linker LRQKDERP (artificial)
# [25] = system: ZFP7263 linker TGEGGKP (artificial)
# [26] = system: ZFP7263 linker TGGGGSQKP (artificial)
# [27] = system: ZFP7263 linker TPLCQRPMKQKP (artificial)
# [28] = system: ZFP7263 linker TPNRCPPTKP (artificial)
# [29] = system: ZFP7263 linker TPRPPIPKP (artificial)
# [30] = system: ZFP7263 linker TQRPQIPPKP (artificial)
# [31] = system: ZFP7263 linker TYPRPLLAKP (artificial)
# [32] = system: ZFP8196 linker 2d center linker F2-F3 TGEKP replaced by TLAPRPYRPPKP (artificial); experiment: ELONA; details: normalized ELISA score averaged over 16 2-bp gaps
# [33] = system: ZFP8196 linker 2e center linker F2-F3 TGEKP replaced by TPGGKSSRTDRNKP (artificial); experiment: ELONA; details: normalized ELISA score averaged over 16 2-bp gaps
# [34] = system: ZFP8196 linker 2f center linker F2-F3 TGEKP replaced by TPNPHRRTDPSHKP (artificial); experiment: ELONA; details: normalized ELISA score averaged over 16 2-bp gaps
# [35] = system: ZFP8196 linker LRQKDGGGSERP (Kim, Pabo) center linker F2-F3 TGEKP replaced by LRQKDGGGSERP (artificial); experiment: ELONA; details: normalized ELISA score averaged over 16 2-bp gaps
# [36] = system: ZFP8196 linker TASCPRPFRPPKP center linker F2-F3 TGEKP replaced by TASCPRPFRPPKP (artificial); experiment: ELONA; details: normalized ELISA score, pool of 16 2-bp gaps
# [37] = system: ZFP8196 linker TETTRPFRPPKP center linker F2-F3 TGEKP replaced by TETTRPFRPPKP (artificial); experiment: ELONA; details: normalized ELISA score, pool of 16 2-bp gaps
# [38] = system: ZFP8196 linker TGEARPYRPPKP center linker F2-F3 TGEKP replaced by TGEARPYRPPKP (artificial); experiment: ELONA; details: normalized ELISA score, pool of 16 2-bp gaps
# [39] = system: ZFP8196 linker TGGGGSGGSQKP (flexible) center linker F2-F3 TGEKP replaced by TGGGGSGGSQKP (artificial); experiment: ELONA; details: normalized ELISA score averaged over 16 2-bp gaps
# [40] = system: ZFP8196 linker TGSLRPYRRPKP center linker F2-F3 TGEKP replaced by TGSLRPYRRPKP (artificial); experiment: ELONA; details: normalized ELISA score, pool of 16 2-bp gaps
# [41] = system: ZFP8196 linker TNTTRPYRPPKP center linker F2-F3 TGEKP replaced by TNTTRPYRPPKP (artificial); experiment: ELONA; details: normalized ELISA score, pool of 16 2-bp gaps
# [42] = system: ZFP8196 linker TSINRPFRRPKP center linker F2-F3 TGEKP replaced by TSINRPFRRPKP (artificial); experiment: ELONA; details: normalized ELISA score, pool of 16 2-bp gaps
sequence,measurement,setting,value
AAAGCGTGCTCCG (double strand) [7264 yeast half-site gap T],activity (normalized MEL-1),[1],0.06
same,activity,[2],2.34
same,activity (normalized MEL-1),[3],0.34
same,activity (normalized MEL-1),[4],0.79
same,activity (normalized MEL-1),[5],3.38
TTAGATAAACTGTGCAAAAGGCTATC (double strand) [8196 target gap TG],binding signal (normalized ELISA),[6],0
same,binding signal (normalized ELISA),[7],0
same,binding signal (normalized ELISA),[8],0.01
same,binding signal (normalized ELISA),[9],0.01
same,binding signal (normalized ELISA),[10],0
same,binding signal (normalized ELISA),[11],0.01
same,binding signal (normalized ELISA),[12],0.01
same,binding signal (normalized ELISA),[13],0
same,binding signal (normalized ELISA),[14],0
same,binding signal (normalized ELISA),[15],0.01
same,binding signal (normalized ELISA),[16],0.01
same,binding signal (normalized ELISA),[17],0.02
same,binding signal (normalized ELISA),[18],0.01
same,binding signal (normalized ELISA),[19],0.01
same,binding signal (normalized ELISA),[20],0.01
same,binding signal (normalized ELISA),[21],0.01
same,binding signal (normalized ELISA),[22],0.01
TTAGCCACTCTGATTGGAAGTGTATC (double strand) [7263 target gap AT],binding signal (normalized ELISA),[23],0.01
same,binding signal (normalized ELISA),[24],0.01
same,binding signal (normalized ELISA),[25],0.01
same,binding signal (normalized ELISA),[26],0.01
same,binding signal (normalized ELISA),[27],0.05
same,binding signal (normalized ELISA),[28],0.02
same,binding signal (normalized ELISA),[29],0.01
same,binding signal (normalized ELISA),[30],0.02
same,binding signal (normalized ELISA),[31],0.01
TTAGCCACTCTGCTTGGAAGTGTATC (double strand) [7263 target gap CT],binding signal (normalized ELISA),[23],0
same,binding signal (normalized ELISA),[24],0.01
same,binding signal (normalized ELISA),[25],0.01
same,binding signal (normalized ELISA),[26],0.02
same,binding signal (normalized ELISA),[27],0.02
same,binding signal (normalized ELISA),[28],0.01
same,binding signal (normalized ELISA),[29],0.01
same,binding signal (normalized ELISA),[30],0.01
same,binding signal (normalized ELISA),[31],0.01
"TTAGATAAACTGNNCAAAAGGCTATC (double strand) [8196 targets 2-bp gap, all 16 compositions]",binding signal,[32],0.127
same,binding signal,[33],0.1
same,binding signal,[34],0.219
same,binding signal,[35],0.003
same,binding signal,[36],0.37
same,binding signal,[37],0.57
same,binding signal,[38],0.61
same,binding signal,[39],0.01
same,binding signal,[40],0.31
same,binding signal,[41],0.41
same,binding signal,[42],0.57
